For two molecules, Kd, koff and kon results are on record in PMC9463536 (The Journal of Biological Chemistry, 2022).

This assay has as its target biotinylated claudin-4–cCpE^1 complex (Homo sapiens claudin-4; Clostridium …, UniProt O14493;P01558, biotin (NHS-PEG4-biotin; sites not stated)). Description: BLI. As to conditions: both partners purified.

biotinylated claudin-4–cCpE^1 complex, sequence (O14493 whole entry, chain 1 of 2): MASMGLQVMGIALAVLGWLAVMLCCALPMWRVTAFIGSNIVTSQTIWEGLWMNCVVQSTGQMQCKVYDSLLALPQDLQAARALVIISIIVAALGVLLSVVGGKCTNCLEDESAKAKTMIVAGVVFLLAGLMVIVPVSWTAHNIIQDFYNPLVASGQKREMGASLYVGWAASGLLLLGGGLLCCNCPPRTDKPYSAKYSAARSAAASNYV
biotinylated claudin-4–cCpE^1 complex, sequence (P01558 197-319, chain 2 of 2): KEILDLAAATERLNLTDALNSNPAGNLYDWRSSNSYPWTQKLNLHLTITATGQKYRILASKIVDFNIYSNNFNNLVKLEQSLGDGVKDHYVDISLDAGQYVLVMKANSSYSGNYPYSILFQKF

B1: COP-3 (CpE Obstructing Protein 3), synthetic antigen-binding fragment (Fab, V domains shown)
VH: EVQLVESGGGLVQPGGSLRLSCAASGFNFYSSSIHWVRQAPGKGLEWVAYISSYSGYTYYADSVKGRFTISADTSKNTAYLQMNSLRAEDTAVYYCARGYGYFDYNFSVGYALDYWGQGTLVTVSS
VL: DIQMTQSPSSLSASVGDRVTITCRASQSVSSAVAWYQQKPGKAPKLLIYSASSLYSGVPSRFSGSRSGTDFTLTISSLQPEDFATYYCQQSHPWYYPITFGQGTKVEIK
notes: also called sFab; source: E. coli BL21-Gold, purified (MabSelect SuRe, Resource S)
For B1, the Kd amounted to 200 ± 5.5 nM, the koff was found to be 0.0039 s⁻¹ and the kon came to 19000 M⁻¹ s⁻¹.

B2: COP-2 (CpE Obstructing Protein 2), synthetic antigen-binding fragment (Fab, V domains shown)
VH: EVQLVESGGGLVQPGGSLRLSCAASGFNFSSSSIHWVRQAPGKGLEWVASISSYSGYTSYADSVKGRFTISADTSKNTAYLQMNSLRAEDTAVYYCARYWSWYNSSHYIYSALDYWGQGTLVTVSS
VL: DIQMTQSPSSLSASVGDRVTITCRASQSVSSAVAWYQQKPGKAPKLLIYSASSLYSGVPSRFSGSRSGTDFTLTISSLQPEDFATYYCQQSYEWAPVTFGQGTKVEIK
notes: as for B1
Molecule B2 displayed a Kd of 161.3 ± 0.6 nM, a koff of 0.0012 s⁻¹ and a kon of 7700 M⁻¹ s⁻¹.
